Measured values: US20160145598
Where two headings read alike, the source gives them in different places.

Assays:
thrombin [1] = tested on: thrombin
thrombin [2] = target: thrombin; remark: listed apart in the source

| Molecule | appearance of FXa after incubation with thrombin (Pefachrome FXa8595 hydrolysis at 405 nm) (thrombin [1]) | appearance of FXa after incubation with thrombin (Pefachrome FXa8595 hydrolysis at 405 nm) (thrombin [2]) |
| --- | --- | --- |
| FX-WT (human factor X from an optimized nucleotide sequence, with C-terminal HPC4 tag) | the plasma and WT FXs being negative since they do not have a thrombin recognition site |  |
| plasma factor X (protein) chain 1: ANSFLEEMKKGHLERECMEETCSYEEAREVFEDSDKTNEFWNKYKDGDQCETSPCQNQGKCKDGLGEYTCTCLEGFEGKNCELFTRKLCSLDNGDCDQFCHEEQNSVVCSCARGYTLADNGKACIPTGPYPCGKQTLER chain 2: SVAQATSSSGEAPDSITWKPYDAADLDPTENPFDLLDFNQTQPERGDNNLTRIVGGQECKDGECPWQALLINEENEGFCGGTILSEFYILTAAHCLYQAKRFKVRVGDRNTEQEEGGEAVHEVEVVIKHNRFTKETYDFDIAVLRLKTPITFRMNVAPACLPERDWAESTLMTQKTGIVSGFGRTHEKGRQSTRLKMLEVPYVDRNSCKLSSSFIITQNMFCAGYDTKQEDACQGDSGGPHVTRFKDTYFVTGIVSWGEGCARKGKYGIYTKVTAFLKWIDRSMKTRGLPKAKSHAPEVITSSPLK |  | the plasma and WT FXs being negative since they do not have a thrombin recognition site |
